From patent US20180064809A1 (University of Texas, published 2018) come the findings set out here.

For assay [1], the target named is syndecan-4 (SD-4) on mouse T cells (mouse) (UniProt O35988). In words: cell-based or functional assay.
The target in another assay is T1, Human DC-HIL (human, UniProt Q14956 23-572).
T1 sequence (looked up): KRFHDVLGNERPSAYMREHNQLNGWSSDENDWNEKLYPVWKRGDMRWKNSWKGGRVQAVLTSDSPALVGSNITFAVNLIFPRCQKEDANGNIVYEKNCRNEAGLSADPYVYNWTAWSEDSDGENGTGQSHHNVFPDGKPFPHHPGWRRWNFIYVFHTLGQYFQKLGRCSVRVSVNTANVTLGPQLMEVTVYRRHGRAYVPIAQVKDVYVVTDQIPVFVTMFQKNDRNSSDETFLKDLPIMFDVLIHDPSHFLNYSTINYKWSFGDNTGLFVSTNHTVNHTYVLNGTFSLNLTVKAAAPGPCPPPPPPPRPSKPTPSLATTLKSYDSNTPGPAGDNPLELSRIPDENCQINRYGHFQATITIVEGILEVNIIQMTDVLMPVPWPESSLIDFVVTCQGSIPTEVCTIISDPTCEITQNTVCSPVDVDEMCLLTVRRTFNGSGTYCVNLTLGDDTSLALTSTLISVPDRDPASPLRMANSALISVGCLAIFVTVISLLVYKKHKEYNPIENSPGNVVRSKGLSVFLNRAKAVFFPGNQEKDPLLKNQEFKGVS
In words: cell-based or functional assay.

Sequence of syndecan-4 (SD-4) on mouse T cells (mouse) (O35988 24-198): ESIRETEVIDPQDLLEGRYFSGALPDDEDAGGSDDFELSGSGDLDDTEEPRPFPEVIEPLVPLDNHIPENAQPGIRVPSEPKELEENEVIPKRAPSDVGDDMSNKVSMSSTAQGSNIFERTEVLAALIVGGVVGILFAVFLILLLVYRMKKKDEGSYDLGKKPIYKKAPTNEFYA

Regarding “DC-HIL-Fc fusion protein (from UniProt Q99P91 23-502)”, the restoration of pmel-1 T cell activation suppressed by melanoma-MDSC in assay [1] is less than 90%.

B1: 3D5 mouse anti-human DC-HIL mAb (antibody, IgG1, V domains shown)
VH: QVQLQQSGAELVKPGTSVKLSCKASGYTFTNYYMYWVKQRPGQGLEWIGEINTRNGGNRFNEKFKNKAILTVDKSSNTAYIQVSSLTSEDSAVYYCTTGFAYWGQGTLVTVSA
VL: QIVLTQSPAIMSASLGEEITLTCSASSSISYMHWYQQKSGTSPKLLIYTTSTLSSGVPSRFSGSGSGTFYSLTISSVEAEDAADYYCHQSSSYPYTFGGGTKLEIKR
Take B1: the “T cell IFN-γ response against control IgG-treated cultures, kidney cancer” value in the assay with Human DC-HIL was 20 fold greater than control IgG-treated cultures.
